Measured values as given in patent US20180346526.
Residue numbers refer to the chain shown, from its start. In names and notes the source's numbering stands.

Molecular target: T1, YydF18-49, truncated form of YydF with residues 18 to 49
T1 chain: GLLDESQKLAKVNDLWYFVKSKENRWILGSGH

B1: YydG C223A mutant (protein)
chain: MYNKTVSINLDSRCNASCDHCCFSSSPTSTTRMEKEYIRELVTEFAKNKTIQVISFTGGEVFLDYKFLKELMEIIKPYEKQITLISNGFWGLSKKKVQEYFHDMNSLNVIALTISYDEYHAPFVKSSSIKNILEHSRKYPDIDISLNMAVTKDKMSNHILEELGDSILGVKITKFPMISVGAAKTRIKQENIHKFYSLEDEDSLHCPGYDIVYHHDGEIYPCASPAIFETKITLREEYNQSFERTVEKLNSNLLLFILRKEGFKWFLNILKENNKIEEFDIPYEFSSICGVCGSLFNSAEKINYFYPYMEKYYNENFKV
epimerization activity on the peptide substrate (HPLC, LC-MS): The C223A mutation did not either prevent the epimerization activity

B2: YydG C22A mutant (protein)
chain: B1 chain with C22A, A223C
enzyme activity on the peptide substrate (HPLC): the C22A mutation did not affect the activity of the enzyme and the three epimerized peptides were produced

B3: YydG C222A mutant (protein)
chain: B1 chain with C222A, A223C
enzyme activity on the peptide substrate (HPLC): The C222A mutant was also totally impaired for enzyme activity

B4: YydG, radical SAM epimerase of Bacillus subtilis (wild type) (protein)
chain: B1 chain with A223C
Peptide 3*/Peptide 3 ratio relative to Peptide 2*/Peptide 2 ratio (tryptic peptide mapping): the Peptide 3*/Peptide 3 ratio was 5 times larger than the Peptide 2*/Peptide 2 ratio
epimerization of Ile residues: up to ˜35% of the Ile
epimerization of Val residues: ˜10% of Val residues
formation of epimerized peptide derivatives (HPLC): YydF18-49 proved to be a better substrate
moles of 5'-dA produced per mole of modified product: YydG produced one mole of 5′-dA per mole of modified product

B5: YydG A3 mutant (AxxxAxxA) (protein)
chain: B1 chain with C14A, C18A, C21A, A223C
conversion of the peptide substrate and SAM cleavage (HPLC): the A3 mutant was unable to convert the peptide substrate and to cleave SAM
